Results published in the supplement of paper PMC10567573.

B1: RAB11A (parent)
chain: AVPTDEARAFAEKNGLSFIETSAL
B2: FBXO3 (parent)
chain: AGGFQQRQGLKYCLPLTFCIHTGL

Variants of: B1
Assay: protein stability index of a GFP-peptide fusion (GPS, HEK-293T) (PSI 1-6); higher = more stable
Details: c terminus: a fixed tail appended
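Also: lentivirally expressed fusions sorted by FACS into six bins by GFP to DsRed ratio, PSI derived from sequencing read proportions per bin multiplied by bin number.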

Protein stability index, by site and new letter:
A1: N 2.4 | P 2.38 | K 2.8 | G 2.77 | F 3.39 | R 2.46 | V 2.49 | C 1.45 | D 2.82 | I 2.57 | M 2.41 | S 2.56 | W 1.8 | L 2.28 | Q 2.43 | H 2.63 | E 2.72 | T 2.55

Variants of: B2
Assay: as above
Details: c terminus: a fixed tail appended

Protein stability index, by site and new letter:
K11: E 2.8 | S 2.74 | Q 2.75 | I 3.42 | D 3.52 | Y 2.43 | G 3.61 | T 2.45 | N 1.99 | M 1.96 | L 2.21 | R 2.03 | H 2.35 | F 3.02
C19: L 2.86 | D 1.46 | R 2.8 | I 1.6 | M 2.71 | Y 2.67 | G 1.97 | T 3.13 | S 2.64 | Q 1.74 | P 1.87 | V 2.83
G3: Y 3.02 | N 3.27 | A 1.48 | L 3.11 | E 1.99 | P 1.51 | F 3.02 | D 3.1 | M 2.47 | R 3.24 | K 2.51 | C 2.66 | Q 4.36 | V 2.54
H21: Q 2.73 | T 2.59 | F 3.32 | G 2.73 | L 2.46 | W 2.15 | K 2.03 | C 3.66 | Y 3.41 | E 1.98 | S 2.72 | I 2.36 | V 3.83 | D 2.99 | M 1.72
L10: Y 3.49 | V 2.85 | F 2.03 | C 2.26 | A 2.95 | M 2.56 | E 2.19 | Q 3.23 | K 3.64 | P 2.2 | S 3.66 | D 2.84
L24: F 2.33 | D 2.42 | W 2.7 | C 2.15 | P 1.88 | I 2.69 | E 3.16 | G 2.74 | N 2.3 | M 2.99 | Y 2.45 | T 2.42 | R 2.73 | V 3.48 | K 1.66
G9: Y 3.4 | N 2.28 | M 3.48 | R 1.48 | K 2.74 | H 2.94 | V 2.39 | E 1.87 | D 2.68 | C 2.68 | I 2.28 | Q 2.5 | S 3.54 | F 2.58 | T 3.85
Q8: Y 2.17 | R 2.99 | K 3.23 | W 2.88 | V 2.22 | G 3.4 | H 2.66 | M 2.24 | C 3.53 | A 2.82 | F 2.59
P15: R 2.51 | L 2.01 | C 2.57 | A 2.77 | G 2.33 | M 2.93 | S 2.81 | Q 2.27 | W 1.61
I20: E 2.95 | R 3.02 | S 2.43 | V 2.78 | K 1.6 | L 3.23 | W 1.25 | T 2.56 | M 2.73 | F 2.34 | A 1.89 | P 2.11 | D 2.93 | C 3.77
F4: T 2.82 | Y 2.42 | D 1.87 | H 2.54 | E 3.03 | I 3.07 | R 2.36 | M 2.69 | S 2.38 | C 2.66
T17: H 3.39 | R 2.87 | L 2.11 | F 1.67 | Q 2.4 | N 1.66 | P 2.59 | M 3.43 | C 2.73 | Y 2.69 | K 2.75 | W 3.79 | E 4.01 | I 2.65
Q5: G 3.92 | I 2.17 | S 3.59 | M 2.17 | Y 3.66 | T 2 | L 2.32 | R 2.27 | C 3.02 | D 2.34 | F 1.98 | W 3.08
Q6: I 3.58 | N 3.27 | G 2.7 | A 2.26 | L 3.23 | C 2.8 | R 2.77 | K 3.51 | Y 2.09 | E 3.6 | M 2.1 | D 1.89 | V 2.68 | H 3.73 | W 3.85
G2: F 2.79 | H 4.03 | P 2.79 | N 2.94 | E 2.36 | L 2.79 | C 2.6 | I 4.2 | T 1.88 | D 1.68 | S 3.13 | Y 2.4 | V 2.97
G23: F 3.1 | E 2.4 | Q 3.06 | R 3.05 | L 2.67 | N 2.97 | D 2.58 | M 2.31 | P 3.02 | K 2.81 | A 3.52 | I 1.85 | V 3.1 | W 2.97
L16: N 1.51 | T 2.53 | K 2.95 | Q 1.52 | C 1.66 | I 3.02 | Y 2.33 | M 4.03 | R 2.91 | P 2.75 | W 2.89 | A 2.44 | H 2.58 | D 1.68
Y12: N 1.86 | T 2.2 | L 3.06 | D 2.21 | A 3.25 | V 2.36 | R 3.39 | M 2.59 | W 2.43 | S 3.56 | G 3.3 | I 2.84 | Q 3.79 | C 2.32
F18: M 2.41 | Y 2.71 | S 1.4 | K 1.89 | T 1.19 | E 2.36 | V 4.06 | A 2.38 | I 2.93 | H 1.77 | P 1.68 | D 1.67 | L 3.1 | Q 2.47
C13: D 2.67 | H 2.57 | A 2.85 | Y 2.22 | I 2.94 | L 1.69 | W 3.43 | V 3.35 | T 3.22 | F 2.94 | N 2.93 | Q 3 | G 2.48
T22: Q 2.23 | M 2.18 | H 2.17 | Y 3.75 | W 2.86 | N 3.55 | P 3.88 | K 2.49 | C 2.09 | L 2.59 | V 3.1 | A 1.86 | R 2.2 | D 1.27
A1: F 3.41 | G 3.9 | Q 2.55 | L 2.46 | H 3.55 | R 2.39 | M 3.13 | V 2.89 | Y 3.08 | E 2.57 | D 2.89 | C 2.76 | S 2.65 | W 5.07 | N 2.47 | T 3.47
R7: T 2.6 | L 3.44 | F 3.23 | P 3.24 | C 2.54 | E 2.83 | H 2.74 | D 2.64 | S 2.33 | V 3.75 | N 2.95
L14: R 2.88 | T 1.84 | M 2.42 | P 1.56 | V 4.27 | A 2.7 | H 1.75 | E 1.97 | S 2.67 | G 3.59 | K 2.73
